In patent US20250381225A1 (DEVELOPMENT CENTER FOR BIOTECHNOLOGY, published 2025):
Numbering of substitutions follows the chain as printed. Values belong to the binder of their own block, whether it stands above or below them.

What was measured:
recombinant PD-1 protein = target: T1, recombinant PD-1 protein (UniProt Q15116 25-167, limits assumed); test: ELISA, recombinant PD-1 coated at 0.1 ug/well, serially diluted antibody
T1 construct: It may or may not be the same reagent as PD1-hFc
Experimental: Antibodies of the invention were evaluated for specific binding to PD-1 using an enzyme-linked immunosorbent assay (ELISA). Briefly, recombinant PD-1 protein was immobilized on a 96-well ELISA plate at 0.1 μg/well. The chimeric anti-human PD-1 2B6 antibody was serially diluted and incubated with the coated PD-1, followed by detection with a horseradish peroxidase (HRP)-conjugated goat anti-mouse IgG secondary antibody. The binding was visualized using 3,3′,5,5′-tetramethylbenzidine (TMB) as a substrate, and the optical density (OD) was measured at 405 nm to assess the binding activity.

PD1-hFc [1] = target: T2, PD1-hFc (UniProt Q15116 25-167); test: ELISA on coated PD1-hFc, anti-human kappa HRP, one site-specific binding fit
T2 construct: ELISA coat at 1 ug/ml; not shown: hFc (human Fc)
T2 sequence (Q15116 25-167): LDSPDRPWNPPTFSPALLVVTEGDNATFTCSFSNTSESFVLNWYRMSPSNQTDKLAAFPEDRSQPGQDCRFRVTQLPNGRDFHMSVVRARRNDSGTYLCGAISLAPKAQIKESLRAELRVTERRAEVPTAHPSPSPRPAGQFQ
Experimental: ELISA plates were coated with PD1-hFc (1 ug/ml) and blocked with blocking buffer (5% milk dissolved in PBS). The antibodies from 66.67 nM to […] dilute (4× fold dilution) were then added to the plates. The binding affinity of tested antibody to PD1-hFc was determined via adding goat anti-human KAPPA HRP IgG (1:3,000 dilution), and binding curve and KD were determined by software using one site-specific binding for nonlinear fit methods.

[2] = target: human PD-1 on PD-1 Effector Cells (Jurkat T cells) (human, UniProt Q15116 25-288); test: cell-based or functional assay
Chain of human PD-1 on PD-1 Effector Cells (Jurkat T cells) (Q15116 25-288): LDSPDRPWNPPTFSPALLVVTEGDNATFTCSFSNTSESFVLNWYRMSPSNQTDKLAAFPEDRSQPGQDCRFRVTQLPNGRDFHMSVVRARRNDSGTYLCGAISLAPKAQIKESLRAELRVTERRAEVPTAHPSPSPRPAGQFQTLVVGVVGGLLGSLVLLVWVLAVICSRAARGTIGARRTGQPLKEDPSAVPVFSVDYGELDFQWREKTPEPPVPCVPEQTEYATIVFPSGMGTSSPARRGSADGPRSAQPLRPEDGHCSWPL

PD1-hFc [3] = target: T2, PD1-hFc; test: ELISA on coated PD1-hFc; scFv-Fc expressed in FreeStyle 293 cells
PD1-hFc [4] = target: T2, PD1-hFc; test: ELISA on PD-1; protein purified from supernatant of 293T cells transfected with the CAR plasmid
Experimental: To evaluate the expression of the present CAR construct, the plasmid encoding the CAR molecule was transfected into 293T cells. The protein was harvested from the supernatant of the cultured cells, followed by purifying and quantifying via measuring OD260/280. On the other hand, the binding affinity of the purified protein towards PD-1 was determined by ELISA.

T1 sequence (Q15116 25-167 limits assumed): as the sequence (Q15116 25-167) above

B1: chimeric anti-human PD-1 2B6 antibody (antibody, V domains shown)
VH: EVKLVESGGGLVKPGGSLKLSCAAAGFTFSSYTMSWVRQTPAKRLEWVATISGGGANIYYPDSVKGRFTISRDNARNTLYLQMSSLRSEDTAMYYCVSPYYAIDFWGQGTSVTVSS
VL: DTVMTQSDKFMSTSVGDRVSITCKASQDVGSAVAWYQQKPGQSPKLLIYWASTRHTGVPDRFTGSGSGTDFTLTISNVQSEDLADYFCQQYSTYTWTFGGGTKLEIK
notes: also called mAb 2B6; M-M
Kd (recombinant PD-1 protein): 0.809 nM | Kd (PD1-hFc [1]): 0.495 nM | NFAT-RE-mediated luminescence (PD-1/PD-L1 Blockade Bioassay), EC50 [2]: 3.88 nM

B3: humanized antibody 2B6 HdB1 Hd (antibody, V domains shown)
VH: EVQLVESGGGLVQPGGSLRLSCKASGFTFSSYTMSWVRQAPGKGLEWVATISGGGANIYYPDSVKGRFTISRDNSKNTLYLQMNSLRAEDTAVYYCVSPYYAIDFWGQGTLVTVSS
VL: DIQMTQSPSSLSASVGDRVTITCKASQDVGSAVAWYQQKPGKAPKLLIYWASTRHTGVPSRFSGSGSGTDFTLTISSLQPEDFATYYCQQYSTYTWTFGQGTKVEIK
notes: Heavy chain HdB1 with light chain Hd
Kd (PD1-hFc [1]): 0.368 nM

B4: humanized 2B6 4D5 (2B6-HdHd) (antibody, V domains shown)
VH: B3 VH with N74D, V97A, S98R
VL: B3 VL
notes: Heavy chain Hd with light chain Hd
Kd (PD1-hFc [1]): 179 nM

Now from value to binder:

Kd (PD1-hFc [3]): 2.58 nM | Kd (PD1-hFc [4]): 1.75 nM
B2: recombinant humanized 2B6 HuB1-scFv-Fc (Fc fusion)
scFv: EVQLVESGGGLVQPGGSLRLSCAASGFTFSSYTMSWVRQAPGKGLEWVATISGGGANIYYPDSVKGRFTISRDNSKNTLYLQMNSLRAEDTAVYYCVSPYYAIDFWGQGTLVTVSSGGGGSGGGGSGGGGSDIQMTQSPSSLSASVGDRVTITCKASQDVGSAVAWYQQKPGKAPKLLIYWASTRHTGVPSRFSGSGSGTDFTLTISSLQPEDFATYYCQQYSTYTWTFGQGTKVEIK
notes: Both carry the same printed name and are kept as one molecule; also called 286 HuB1-scFv-Fc; PD-1^2B6 scFv-Fc; not shown: lim

Kd (PD1-hFc [1]): 0.403 nM
B5: humanized antibody 2B6 HuB1 Hd (antibody, V domains shown)
VH: B3 VH with K23A
VL: B3 VL
notes: Heavy chain HuB1 with light chain Hd
